Assay [1] concerns the target rHuman CD44/Fc Chimera, CF (R&D Systems Cat#3660-CD) (human) (UniProt P16070). The assay can be described thus: ECL multispot (MSD) binding assay, antigen spotted on plate, Fab in solution; blank spot 306.
For assay [2], the target named is rHuman EGF R/Fc Chimera, CF (R&D Systems Cat#344-ER) (human) (UniProt P00533). The description is as above.
Assay [3] deals with rHuman ErbB2/Fc Chimera, CF (R&D Systems Cat#1129-ER) (human) (UniProt P04626). Described as above.
The target of assay [4] is rHuman HGF R/c-MET/Fc Chimera, CF (R&D Systems Cat#358-MT/CF) (human) (UniProt P08581). The description is as above.
In assay [5] the target is rHuman IGF-1 sR, CF (R&D Systems Cat#391-GR) (human) (UniProt P08069). Described as above.
Assay [6] addresses rHuman Notch-1/Fc Chimera, CF (R&D Systems Cat#3647-TK) (human) (UniProt P46531). Described as above.
For assay [7], the target named is rHuman P-Cadherin/Fc Chimera, CF (R&D Systems Cat#861-PC) (human) (UniProt P22223). The assay is described as above.
Assay [8] concerns the target rHuman CD44/Fc Chimera, CF (R&D Systems Cat#3660-CD) (human) (UniProt P16070). Description: ECL multispot (MSD) binding assay, antigen spotted on plate, Fab in solution; blank spot 321.
The target of assay [9] is rHuman EGF R/Fc Chimera, CF (R&D Systems Cat#344-ER) (human) (UniProt P00533). The assay is described as above.
The target of assay [10] is rHuman ErbB2/Fc Chimera, CF (R&D Systems Cat#1129-ER) (human) (UniProt P04626). The assay is described as above.
The target of assay [11] is rHuman HGF R/c-MET/Fc Chimera, CF (R&D Systems Cat#358-MT/CF) (human) (UniProt P08581). The description is as above.
The target in assay [12] is rHuman IGF-1 sR, CF (R&D Systems Cat#391-GR) (human) (UniProt P08069). The description is as above.
The target of assay [13] is rHuman Notch-1/Fc Chimera, CF (R&D Systems Cat#3647-TK) (human) (UniProt P46531). The assay is described as above.
The target of assay [14] is rHuman P-Cadherin/Fc Chimera, CF (R&D Systems Cat#861-PC) (human) (UniProt P22223). Described as above.
The target of assay [15] is rHuman CD44/Fc Chimera, CF (R&D Systems Cat#3660-CD) (human) (UniProt P16070). The assay can be described thus: ECL multispot (MSD) binding assay, antigen spotted on plate, Fab in solution; blank spot 237.
For assay [16], the target named is rHuman EGF R/Fc Chimera, CF (R&D Systems Cat#344-ER) (human) (UniProt P00533). The assay is described as above.
The target in assay [17] is rHuman ErbB2/Fc Chimera, CF (R&D Systems Cat#1129-ER) (human) (UniProt P04626). The assay is described as above.
Assay [18] deals with rHuman Erythropoietin R/Fc Chimera, CF (R&D Systems Cat#963-ER) (human) (UniProt P19235). The assay is described as above.
Assay [19] deals with rHuman HGF R/c-MET/Fc Chimera, CF (R&D Systems Cat#358-MT/CF) (human) (UniProt P08581). The description is as above.
For assay [20], the target named is rHuman IGF-1 sR, CF (R&D Systems Cat#391-GR) (human) (UniProt P08069). The description is as above.
Assay [21] deals with rHuman Notch-1/Fc Chimera, CF (R&D Systems Cat#3647-TK) (human) (UniProt P46531). The assay is described as above.
The target of assay [22] is rHuman P-Cadherin/Fc Chimera, CF (R&D Systems Cat#861-PC) (human) (UniProt P22223). The assay is described as above.
Assay [23] deals with rHuman CD44/Fc Chimera, CF (R&D Systems Cat#3660-CD) (human) (UniProt P16070). Description: ECL multispot (MSD) binding assay, antigen spotted on plate, Fab in solution; blank spot 215.
Assay [24] has as its target rHuman EGF R/Fc Chimera, CF (R&D Systems Cat#344-ER) (human) (UniProt P00533). The assay is described as above.
Assay [25] has as its target rHuman ErbB2/Fc Chimera, CF (R&D Systems Cat#1129-ER) (human) (UniProt P04626). The assay is described as above.
The target in assay [26] is rHuman Erythropoietin R/Fc Chimera, CF (R&D Systems Cat#963-ER) (human) (UniProt P19235). The description is as above.
Assay [27] deals with rHuman HGF R/c-MET/Fc Chimera, CF (R&D Systems Cat#358-MT/CF) (human) (UniProt P08581). The assay is described as above.
For assay [28], the target named is rHuman IGF-1 sR, CF (R&D Systems Cat#391-GR) (human) (UniProt P08069). Described as above.
The target in assay [29] is rHuman Notch-1/Fc Chimera, CF (R&D Systems Cat#3647-TK) (human) (UniProt P46531). The description is as above.
Assay [30] deals with rHuman P-Cadherin/Fc Chimera, CF (R&D Systems Cat#861-PC) (human) (UniProt P22223). The description is as above.
Assay [31] addresses rHuman CD44/Fc Chimera, CF (R&D Systems Cat#3660-CD) (human) (UniProt P16070). The assay can be described thus: ECL multispot (MSD) binding assay, antigen spotted on plate, Fab in solution; blank spot 349.
Assay [32] deals with rHuman EGF R/Fc Chimera, CF (R&D Systems Cat#344-ER) (human) (UniProt P00533). Described as above.
Assay [33] addresses rHuman ErbB2/Fc Chimera, CF (R&D Systems Cat#1129-ER) (human) (UniProt P04626). The description is as above.
The target of assay [34] is rHuman HGF R/c-MET/Fc Chimera, CF (R&D Systems Cat#358-MT/CF) (human) (UniProt P08581). The assay is described as above.
Assay [35] addresses rHuman IGF-1 sR, CF (R&D Systems Cat#391-GR) (human) (UniProt P08069). Described as above.
The target in assay [36] is rHuman Notch-1/Fc Chimera, CF (R&D Systems Cat#3647-TK) (human) (UniProt P46531). The assay is described as above.
Assay [37] has as its target rHuman P-Cadherin/Fc Chimera, CF (R&D Systems Cat#861-PC) (human) (UniProt P22223). The description is as above.
For assay [38], the target named is Recombinant Human DLL4 (delta-like protein 4) (human) (UniProt Q9NR61). The assay can be described thus: ELISA, Fab on coated recombinant human DLL4, signal minus noise.
For assay [39] the target is unchanged. Description: ECL (MSD electrochemiluminescence) binding assay, Fab on immobilised recombinant human DLL4.
The target in assay [40] is rHuman CD44/Fc Chimera, CF (R&D Systems Cat#3660-CD) (human) (UniProt P16070). Description: ECL multispot (MSD) binding assay, antigen spotted on plate, Fab in solution; blank spot 277.
For assay [41], the target named is rHuman EGF R/Fc Chimera, CF (R&D Systems Cat#344-ER) (human) (UniProt P00533). The description is as above.
Assay [42] has as its target rHuman ErbB2/Fc Chimera, CF (R&D Systems Cat#1129-ER) (human) (UniProt P04626). The assay is described as above.
Assay [43] has as its target rHuman Erythropoietin R/Fc Chimera, CF (R&D Systems Cat#963-ER) (human) (UniProt P19235). The assay is described as above.
Assay [44] addresses rHuman HGF R/c-MET/Fc Chimera, CF (R&D Systems Cat#358-MT/CF) (human) (UniProt P08581). The assay is described as above.
Assay [45] deals with rHuman IGF-1 sR, CF (R&D Systems Cat#391-GR) (human) (UniProt P08069). Described as above.
Assay [46] addresses rHuman Notch-1/Fc Chimera, CF (R&D Systems Cat#3647-TK) (human) (UniProt P46531). Described as above.
The target in assay [47] is rHuman P-Cadherin/Fc Chimera, CF (R&D Systems Cat#861-PC) (human) (UniProt P22223). Described as above.

With “Fab VH5-51_IGHD5-18*01>3_IGHJ4*01 G100K/G104T D55A & V3-4_IGLJ1*01”, the ECL signal in [1] was 606; in assay [2] it was 729; in assay [3] it was 1030; in assay [4], 856; in assay [5], 898; in [6], 683. Besides, the ECL signal in assay [7] came out at 310.
As to “Fab VH5-51_IGHD5-18*01>3_IGHJ4*01 G100K/G104T D57A & V3-4_IGLJ1*01”, the ECL signal in assay [8] is 600; in [9], 915; in assay [10], 1200; in assay [11] it was 1130; in [12], 982; in assay [13] it was 523. This substance also registered an ECL signal in [14] of 365.
For “Fab VH5-51_IGHD5-18*01>3_IGHJ4*01 G100K/G104T I50A & V3-4_IGLJ1*01”, the ECL signal came out at 632 in assay [15]; 794 in assay [16]; 925 in assay [17]; 523 in assay [18]; 822 in [19]; 785 in assay [20]. Moreover, the ECL signal came out at 443 in assay [21] and 343 in [22].
For the substance “Fab VH5-51_IGHD5-18*01>3_IGHJ4*01 G100K/G104T I51A & V3-4_IGLJ1*01”, the ECL signal turned out to be 517 in [23]; 803 in [24]; 1090 in [25]; 497 in assay [26]; 875 in assay [27]; 828 in assay [28]. Besides, the ECL signal in assay [29] was found to be 612; in [30], 432.
“Fab VH5-51_IGHD5-18*01>3_IGHJ4*01 G100K/G104T P53A & V3-4_IGLJ1*01”: the ECL signal was 556 in [31]; 976 in [32]; 1140 in [33]; 1000 in [34]; 943 in assay [35]; 536 in assay [36]. Besides, the ECL signal in [37] came to 424.
“Fab VH5-51_IGHD5-18*01>3_IGHJ4*01 G100K/G104T T58D/K & V3-4_IGLJ1*01”: in [38], the ELISA (Signal-Noise) worked out at 0.03. Further, in assay [39], the ECL signal came to 823.
Turning to “Fab VH5-51_IGHD5-18*01>3_IGHJ4*01 G100K/G104T Y52A & V3-4_IGLJ1*01”, the ECL signal in assay [40] was found to be 591; in assay [41], 745; in [42], 989; in [43] it was 584; in assay [44], 803; in assay [45], 827. Besides, the ECL signal in [46] is 566; in [47], 334.

(Values after patent publication US20120316071A1.)
